Test results from article PMC12685124 (Proceedings of the National Academy of Sciences of the …, 2025).

Experiments:
[1] = target: T1, mesencephalic astrocyte-derived neurotrophic factor (Manf), recombinant (UniProt P55145 25-182); test: MST
[2] = target: T2, brain-derived neurotrophic factor (BDNF) (UniProt P23560 19-247); test: MST
T2 sequence (looked up): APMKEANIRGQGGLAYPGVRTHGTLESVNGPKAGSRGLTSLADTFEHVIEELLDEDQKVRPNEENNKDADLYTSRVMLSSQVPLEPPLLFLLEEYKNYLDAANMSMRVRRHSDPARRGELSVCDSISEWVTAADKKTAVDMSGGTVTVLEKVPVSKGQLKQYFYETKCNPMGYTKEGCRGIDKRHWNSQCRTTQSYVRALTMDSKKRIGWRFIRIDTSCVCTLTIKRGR

[3] = target: T1, mesencephalic astrocyte-derived …; test: ELISA

B1: recombinant Np55 protein, extracellular domain (SinoBiological) (domain or fragment)
chain: QNEPRIVTSEEVIIRDSPVLPVTLQCNLTSSSHTLTYSYWTKNGVELSATRKNASNMEYRINKPRAEDSGEYHCVYHFVSAPKANATIEVKAAPDITGHKRSENKNEGQDATMYCKSVGYPHPDWIWRKKENGMPMDIVNTSGRFFIINKENYTELNIVNLQITEDPGEYECNATNAIGSASVVTVLRVRSHLAP
modifications: RED-NHS fluorescent label (in the MST assay only)
B1 showed a Kd [1] of 0.0346 ± 0.00719 µM, a Kd [2] of 1.74 ± 0.41 µM and a Kd [3] of 0.0145 ± 0.00117 µM.
